Results published in paper PMC12809806, “Structural Analysis of Tilvestamab in Complex with AXL” (ACS Omega, 2025).

Experiments:
[1] = target: T1, Monomeric sAXL, the soluble extracellular domain of AXL (human, UniProt P30530); experiment: SEC-SAXS; SWING beamline (SOLEIL), HPLC mode; BioSEC-3 300 or BioSEC-5 1000 column in PBS or 10 mM histidine, 150 mM NaCl, pH 6; proteins alone and mixed, in solution; settings: both partners purified
T1 construct: AXL receptor tyrosine kinase, human, soluble extracellular domain released from AXL-Fc by papain; also called monomeric AXL extracellular domain; source: papain digestion of AXL-Fc (Evitria), followed by protein A purification; not shown: Fc, C-terminal, cleaved

[2] = target: T2, Human AXL-Fc containing the entire extracellular domain of human AXL (Homo sapiens, UniProt P30530); experiment: as above; settings: both partners purified
T2 construct: AXL receptor tyrosine kinase, human, entire extracellular domain (two Ig-like and two fibronectin type III domains); Dimer through the C-terminal Fc; also called dimeric AXL-Fc; source: bought: Evitria (Switzerland); not shown: Fc, C-terminal, kept
T2 sequence (P30530 26-451): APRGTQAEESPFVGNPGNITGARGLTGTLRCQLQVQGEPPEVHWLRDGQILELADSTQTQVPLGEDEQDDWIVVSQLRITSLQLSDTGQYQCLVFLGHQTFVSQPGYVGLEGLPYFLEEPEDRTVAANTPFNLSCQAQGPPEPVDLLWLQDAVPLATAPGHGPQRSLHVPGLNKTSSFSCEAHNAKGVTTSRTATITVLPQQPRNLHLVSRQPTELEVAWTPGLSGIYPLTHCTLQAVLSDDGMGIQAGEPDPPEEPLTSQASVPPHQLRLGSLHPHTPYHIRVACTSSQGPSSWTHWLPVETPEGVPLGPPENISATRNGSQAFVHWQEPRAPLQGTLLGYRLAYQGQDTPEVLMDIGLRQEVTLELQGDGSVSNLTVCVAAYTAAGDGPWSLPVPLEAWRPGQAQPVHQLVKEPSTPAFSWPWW

T1 sequence (P30530 26-451): as above

stoichiometry N [1]: 1 Fab per sAXL (1:1)
stoichiometry N [2]: 1 Fab per AXL-Fc chain (2:2)
B1: Fab fragment of tilvestamab (Fab, V domains shown)
VH: EVQLVESGGGLVQPGGSLRLSCAASGYSFTDFYINWVRQAPGKGLEWVARIFPGGDNTYYNEKFKGRFTLSADTSKSTAYLQMNSLRAEDTAVYYCARRGLYYAMDYWGQGTLVTVSS
VL: DIQMTQSPSSLSASVGDRVTITCRSSQSLVHSNGIPYLHWYQQKPGKAPKLLIYRVSNRFSGVPSRFSGSGSGTDFTLTISSLQPEDFATYYCSQGTHVPPTFGQGTKVEIK
notes: heavy chain (HC) of the Fab; light chain (LC) of the Fab; also called tilvestamab Fab; source: papain proteolysis of tilvestamab (immobilized papain), MabSelect SuRe column
